Test results as given in publication PMC9499402, “Crystal Structure of an Archaeal Tyrosyl-tRNA Synthetase Bound to Photocaged L-Tyrosine and Its Potential Application to Time-Resolved X-ray Crystallography” (International Journal of Molecular Sciences, 2022).

Target: the molecule itself
Assay: crystal structure; oNBTyrRS (10 mg/mL) co-crystallised with oNBTyr (1.4 mg/mL), sitting-drop vapor diffusion at 20 °C; reservoir 20% PEG300, 3% PEG8000, 10% glycerol, 100 mM Tris-HCl pH 8.0; dimer in the asymmetric unit; 2.79 Å

B1: oNBTyrRS, O-(2-nitrobenzyl)-L-tyrosine-specific variant of Methanocaldococcus jannaschii tyrosyl-tRNA synthetase (Y32G, L65G, F108E, D158S, L162E, D286R) (enzyme, UniProt Q57834 1-306, looked up)
chain: MDEFEMIKRNTSEIISEEELREVLKKDEKSAGIGFEPSGKIHLGHYLQIKKMIDLQNAGFDIIIGLADLHAYLNQKGELDEIRKIGDYNKKVFEAMGLKAKYVYGSEEQLDKDYTLNVYRLALKTTLKRARRSMELIAREDENPKVAEVIYPIMQVNSIHYEGVDVAVGGMEQRKIHMLARELLPKKVVCIHNPVLTGLDGEGKMSSSKGNFIAVDDSPEEIRAKIKKAYCPAGVVEGNPIMEIAKYFLEYPLTIKRPEKFGGDLTVNSYEELESLFKNKELHPMRLKNAVAEELIKILEPIRKRL
notes: Methanocaldococcus jannaschii tyrosyl-tRNA synthetase (MjTyrRS), UniProt Q57834, with six substitutions; all 306 amino acid residues were modelled in the crystal structure; Residues of the TEV site may remain after cleavage; also called oNBTyr-tRNA synthetase; M. jannaschii oNBTyrRS; source: E. coli Rosetta2 (DE3), purified (HisTrap, TEV cleavage, HisTrap flow-through, desalting, HiTrap Q); not …
stoichiometry N: 2
